The record followed here is article PMC7096168.

Data set [1] has as its target T1, dCTCF zinc finger cluster (UniProt Q9VS55 294-614).
T1 sequence: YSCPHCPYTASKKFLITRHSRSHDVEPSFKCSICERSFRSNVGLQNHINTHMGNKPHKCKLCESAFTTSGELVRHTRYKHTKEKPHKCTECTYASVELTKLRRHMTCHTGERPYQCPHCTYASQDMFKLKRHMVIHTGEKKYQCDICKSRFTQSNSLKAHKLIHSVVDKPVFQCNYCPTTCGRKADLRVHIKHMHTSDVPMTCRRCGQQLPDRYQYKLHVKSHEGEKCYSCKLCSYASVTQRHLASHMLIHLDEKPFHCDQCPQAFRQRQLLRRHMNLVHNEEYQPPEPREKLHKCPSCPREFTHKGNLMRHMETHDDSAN
As to the kind of experiment: EMSA. A general note: In EMSA bound probe runs differently from free probe, usually more slowly.

Data set [2] addresses T2, Su(Hw) zinc finger cluster (UniProt P08970 220-619).
T2 sequence: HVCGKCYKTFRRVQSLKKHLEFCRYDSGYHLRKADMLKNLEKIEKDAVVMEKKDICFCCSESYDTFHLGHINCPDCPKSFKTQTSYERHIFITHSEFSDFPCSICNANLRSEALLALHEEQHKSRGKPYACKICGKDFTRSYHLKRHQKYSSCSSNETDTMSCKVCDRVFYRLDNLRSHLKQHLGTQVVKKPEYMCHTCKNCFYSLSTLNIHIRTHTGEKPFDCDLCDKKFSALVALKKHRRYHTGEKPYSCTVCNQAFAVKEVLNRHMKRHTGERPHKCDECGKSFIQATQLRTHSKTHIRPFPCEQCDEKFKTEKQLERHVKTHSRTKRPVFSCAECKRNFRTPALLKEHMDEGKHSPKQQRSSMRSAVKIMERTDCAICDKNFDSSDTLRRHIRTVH
As to the kind of experiment: EMSA.

B1: F2177 (dsDNA)
DNA 1: ATGCCTAAAAGTATGCAGAAATTTGTTCAACAAGTCTGCTTATGTGCACCCTCTCGCGATCGGTGGCATAACCAATCGAGGATTCAGCTCTTGAGCTACCTGCCGAAAGGGGCGCGGCGACCTTAAGGGCGACATCTATATCTCGCATAGTGTGCAGAACTGCTTGTTCCTAGTCAC
DNA 2: GTGACTAGGAACAAGCAGTTCTGCACACTATGCGAGATATAGATGTCGCCCTTAAGGTCGCCGCGCCCCTTTCGGCAGGTAGCTCAAGAGCTGAATCCTCGATTGGTTATGCCACCGATCGCGAGAGGGTGCACATAAGCAGACTTGTTGAACAAATTTCTGCATACTTTTAGGCAT
Take B1: the binding result in data set [1] and in data set [2] was “binds” each time.

B2: F2177ΔC (dsDNA)
DNA 1: ATGCCTAAAAGTATGCAGAAATTTGTTCAACAAGTCTGCTTATGTGCACCCTCTCGCGATCGGTGGCATAACCAATCGAGGATTCAGCTCTTGAGCTACCTGCCGAAAGGGGCGCGGCAACCTTAAGCTTGCATAGTGTGCAGAACTGCTTGTTCCTAGTCAC
DNA 2: GTGACTAGGAACAAGCAGTTCTGCACACTATGCAAGCTTAAGGTTGCCGCGCCCCTTTCGGCAGGTAGCTCAAGAGCTGAATCCTCGATTGGTTATGCCACCGATCGCGAGAGGGTGCACATAAGCAGACTTGTTGAACAAATTTCTGCATACTTTTAGGCAT
On to B2, for which the binding result was “no binding” in data set [1] and “binds” in data set [2].

B3: CTCF×4 (dsDNA)
DNA 1: ACTAGTGCTGCAGCGCCACCTGGCCTTGGAGATCCTGCAGCGCCACCTGGCCTTGGAGATCCTGCAGCGCCACCTGGCCTTGGAGATCTCCAAGGCCAGGTGGCGCTGCAGCCCCGGG
DNA 2: CCCGGGGCTGCAGCGCCACCTGGCCTTGGAGATCTCCAAGGCCAGGTGGCGCTGCAGGATCTCCAAGGCCAGGTGGCGCTGCAGGATCTCCAAGGCCAGGTGGCGCTGCAGCACTAGT
As for B3, the binding result in data set [1] is “binds”.

B4: F2177ΔSu (dsDNA)
DNA 1: GTTCAACAAGTCTGCTTATGTGCACCCTCTCGCGATCGGTGGCATAACCAATCGAGGATTCAGCTCTTGAGCTACCTGCCGAAAGGGGCGCGGCGACCTTAAGGGCGACATCTATATCTCGCATAGTGTGCAGAACTGCTTGTTCCTAGTCAC
DNA 2: GTGACTAGGAACAAGCAGTTCTGCACACTATGCGAGATATAGATGTCGCCCTTAAGGTCGCCGCGCCCCTTTCGGCAGGTAGCTCAAGAGCTGAATCCTCGATTGGTTATGCCACCGATCGCGAGAGGGTGCACATAAGCAGACTTGTTGAAC
For B4, the binding result in data set [1] is listed as “binds”; in data set [2], “no binding”.

B5: F2177Δ21 (dsDNA)
DNA 1: ATGCCTAAAAGTATGCAGAAATTTGTTCAACAAGTCTGCTTATGTGCACCCTCTCGCGATCGGTGGCATAACCAATCGAGGATTCAGCTCTTGAGCTACCTGCAAGCTTAAGGGCGACATCTATATCTCGCATAGTGTGCAGAACTGCTTGTTCCTAGTCAC
DNA 2: GTGACTAGGAACAAGCAGTTCTGCACACTATGCGAGATATAGATGTCGCCCTTAAGCTTGCAGGTAGCTCAAGAGCTGAATCCTCGATTGGTTATGCCACCGATCGCGAGAGGGTGCACATAAGCAGACTTGTTGAACAAATTTCTGCATACTTTTAGGCAT
As for B5, in data set [1], the binding result was “binds”.
